Source: PMC3673994 (PLoS ONE, 2013)

Target: T1, human mtRNase P (TRMT10C-SDR5C1 and PRORP) (Homo sapiens, UniProt Q7L0Y3+Q99714)
T1 construct: made in house; host or cells: E. coli
T1 sequence (Q99714 1-261): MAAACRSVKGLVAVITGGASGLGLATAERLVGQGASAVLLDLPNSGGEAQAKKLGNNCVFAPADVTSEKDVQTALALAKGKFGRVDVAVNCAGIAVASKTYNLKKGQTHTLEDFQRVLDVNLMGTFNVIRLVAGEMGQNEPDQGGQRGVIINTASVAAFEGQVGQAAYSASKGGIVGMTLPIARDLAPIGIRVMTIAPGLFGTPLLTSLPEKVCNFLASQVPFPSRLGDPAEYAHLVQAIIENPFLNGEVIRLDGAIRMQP
T1 sequence (Q7L0Y3 40-403 partner): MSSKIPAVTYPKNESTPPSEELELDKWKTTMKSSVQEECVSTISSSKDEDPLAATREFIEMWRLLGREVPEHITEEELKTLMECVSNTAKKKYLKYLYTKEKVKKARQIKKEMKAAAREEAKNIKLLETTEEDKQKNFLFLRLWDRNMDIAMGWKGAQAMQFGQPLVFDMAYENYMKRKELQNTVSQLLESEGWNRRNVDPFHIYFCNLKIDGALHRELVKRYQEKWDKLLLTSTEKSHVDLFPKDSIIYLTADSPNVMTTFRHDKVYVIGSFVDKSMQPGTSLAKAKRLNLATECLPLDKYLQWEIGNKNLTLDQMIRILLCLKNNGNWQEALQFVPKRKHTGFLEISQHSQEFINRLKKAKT
Assay: RNase P assay, (mt)tRNA^His precursor cleavage
Format: biochemical
Settings: freshly dissolved fragments, up to 10 µM; three independent experiments
Text: Samples for analysis were withdrawn at defined intervals or at known linear-range time-points and phosphor imaging data quantitatively analyzed with ImageQuant TL 7 (GE Healthcare).

Row | Substance | effect on tRNA 5′-end processing by mtRNase P
1 | Aβ25–35: synthetic Aβ peptide fragment corresponding to amino acids 25–35 (rPeptide) (GSNKGAIIGLM; Amyloid-beta protein 40; UniProt P05067 696-706, looked up, fragment) | none of the two affected
2 | Aβ1–28: synthetic Aβ peptide fragment, amino acids 1–28 (rPeptide) | none of the two affected
